± gives the standard error. Fewer inactive variants are shown than the library holds.
B1: glmS ribozyme (parent)
chain: AUAAAAGCGCCAGAACUACAGAAAUGUAGUUGACGAGGAGGAGGUUUAUCGAAUUUUCGGCGGAUGCCUCCAAA

Columns and labels:
Settings in all cases: with glucosamine-6-phosphate
[1] = variants of: B1; test: self-cleavage kobs at 40 uM GlcN6P; higher = faster cleavage; RNA array
Summary of the method: (§1)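 Glucosamine-6-phosphate, from 40 μM to 10 mM in HEPES/KCl/Mg(OAc)2 buffer, was flowed over sequenced MiSeq chips carrying barcoded ribozyme variants transcribed in situ by E. coli RNA polymerase. A hybridised Cy3 probe tracked the variants at 37 °C as tiles were imaged over ~14 h. kobs, kcat and KM were obtained by fitting normalised per-tile medians to exponential decays and then applying weighted Michaelis–Menten fits across concentrations.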

[2] = variants of: B1; test: self-cleavage kobs at 640 uM GlcN6P; higher = faster cleavage; RNA array
Summary of the method: as §1

[3] = variants of: B1; test: self-cleavage kobs at 10000 uM GlcN6P; higher = faster cleavage; RNA array
Summary of the method: as §1

[4] = variants of: B1; test: self-cleavage kobs at 2500 uM GlcN6P; higher = faster cleavage; RNA array
Summary of the method: as §1

[5] = variants of: B1; test: self-cleavage kobs at 160 uM GlcN6P; higher = faster cleavage; RNA array
Summary of the method: as §1

Variant: AUAAAAGCGCCAGAACUACAGAAAUGUAGGUGACGAGGAGGAGGUUUAUCGAAUUUUCGUCGGAUGCCUCCAAA [U30G G60U]
- self-cleavage kobs at 40 uM GlcN6P [1]: < 1e-05 s⁻¹
- self-cleavage kobs at 640 uM GlcN6P [2]: < 1e-05 s⁻¹
- self-cleavage kobs at 10000 uM GlcN6P [3]: < 1e-05 s⁻¹

Variant: AUAAAAGCGCCAGAACUACAGAAAUGUAAUUGACGAGGAGGAGGUUUAUCGAAUUUUCGGUGAAUGCCUCCAAA [G29A C61U G63A]
- self-cleavage kobs at 40 uM GlcN6P [1]: < 1e-05 s⁻¹

Variant: AUAAAAGCGCCAGAACUACAGAAAUGUAGUUGACGAGGAGGAGGUUUGUGGAAUUUUCGGGGGAUGCCUCCAAA [A48G C50G C61G]
- self-cleavage kobs at 40 uM GlcN6P [1]: 0.000172 ± 6.6e-05 s⁻¹
- self-cleavage kobs at 10000 uM GlcN6P [3]: 0.000127 ± 3.7e-05 s⁻¹

Variant: AUAAAAGCGCCAGAACUACAGAAAUGUAGUUGACGAGGAGGAGAUUAAUCGAAUUUUCGGCGGAUGCCUCAAAA [G44A U47A C71A]
- self-cleavage kobs at 40 uM GlcN6P [1]: < 1e-05 s⁻¹
- self-cleavage kobs at 640 uM GlcN6P [2]: < 1e-05 s⁻¹
- self-cleavage kobs at 2500 uM GlcN6P [4]: < 1e-05 s⁻¹
- self-cleavage kobs at 10000 uM GlcN6P [3]: < 1e-05 s⁻¹

Variant: AUAAAAGCGACAGAACUACAGAAAUGUAGUCGACGAGGAGGAGGUUUAUCGAAUUUUCGGCGGAUGCCUCCAAA [C10A U31C]
- self-cleavage kobs at 40 uM GlcN6P [1]: < 1e-05 s⁻¹
- self-cleavage kobs at 640 uM GlcN6P [2]: < 1e-05 s⁻¹
- self-cleavage kobs at 10000 uM GlcN6P [3]: < 1e-05 s⁻¹

Variant: AUAAAAGCGCCAGAGCUACAGAAAUGUAGUUGACGAGGAGUAGGUUUAUCGAAUUUUCGGCGGAUGCCUCCAAA [A15G G41U]
- self-cleavage kobs at 40 uM GlcN6P [1]: 0.000204 ± 2.3e-05 s⁻¹
- self-cleavage kobs at 160 uM GlcN6P [5]: 0.000282 ± 4.5e-05 s⁻¹
- self-cleavage kobs at 640 uM GlcN6P [2]: 0.000507 ± 8.7e-05 s⁻¹
- self-cleavage kobs at 2500 uM GlcN6P [4]: 0.00155 ± 0.00029 s⁻¹

Variant: AUAAAAGCGCCAGAACUACAGAAAUGUAGUUGACUAGGAGGAGGUUUAUCGAACAUUCCGCGGAUGCCUCCAAA [G35U U54C U55A G59C]
- self-cleavage kobs at 40 uM GlcN6P [1]: < 1e-05 s⁻¹
- self-cleavage kobs at 10000 uM GlcN6P [3]: < 1e-05 s⁻¹

Variant: AUAAAAGCGCCGCAACUACAGAAAUGUAGUUUACGAGGAAGAGGUUUAUCGAAUUUUCGGCGGCUGCCUCCAAA [A12G G13C G32U G40A A64C]
- self-cleavage kobs at 40 uM GlcN6P [1]: < 1e-05 s⁻¹

Variant: AUAAAAGCGCCAGAACUACAGAAAUGUAGUUGACGAUGACGAGGUUUAUCGAAUUUUCGGCGGUUGCCUCCAAA [G37U G40C A64U]
- self-cleavage kobs at 40 uM GlcN6P [1]: < 1e-05 s⁻¹
- self-cleavage kobs at 10000 uM GlcN6P [3]: < 1e-05 s⁻¹

Variant: AUAAAAGCGCCAGAACUACAGAAAUGUAGUUGACGACCAUGAGGUUUAUCGAAUAUUCGGCGGAUGCCUCCAAA [G37C G38C G40U U55A]
- self-cleavage kobs at 40 uM GlcN6P [1]: < 1e-05 s⁻¹
- self-cleavage kobs at 2500 uM GlcN6P [4]: < 1e-05 s⁻¹

Variant: AUAAAAGCGCCAGAACUACAGAAAUGUAGUUGACGAGGAGGAGGUAUAUCGAAUUUCCGGCGGAUGCCUCCAAA [U46A U57C]
- self-cleavage kobs at 40 uM GlcN6P [1]: < 1e-05 s⁻¹

Variant: AUAAAAGCGCCAGAACUACAGAAAUGUAGUUGAAGAGGAGGAGGUUUAUCGAAUUUUUGGCGGAUGCCUCCAAA [C34A C58U]
- self-cleavage kobs at 40 uM GlcN6P [1]: < 1e-05 s⁻¹
- self-cleavage kobs at 160 uM GlcN6P [5]: < 1e-05 s⁻¹
- self-cleavage kobs at 640 uM GlcN6P [2]: < 1e-05 s⁻¹
- self-cleavage kobs at 2500 uM GlcN6P [4]: < 1e-05 s⁻¹
- self-cleavage kobs at 10000 uM GlcN6P [3]: < 1e-05 s⁻¹

Variant: AUAAAUGCGCCAGAACUACAGAAAUGUAGUUGACGAGGAGCAGGUUUAUCGAAUUUUCGGCGGAUGCCUCCAAA [A6U G41C]
- self-cleavage kobs at 40 uM GlcN6P [1]: < 1e-05 s⁻¹
- self-cleavage kobs at 160 uM GlcN6P [5]: < 1e-05 s⁻¹
- self-cleavage kobs at 2500 uM GlcN6P [4]: < 1e-05 s⁻¹
- self-cleavage kobs at 10000 uM GlcN6P [3]: < 1e-05 s⁻¹

Variant: AUAAAAGCGCCAGAACUACAGAAAUGUAUUUGACGAGGAGGAGGUUUAUCGAAUUGUCGGCUGAUGCCUCCAAA [G29U U56G G62U]
- self-cleavage kobs at 40 uM GlcN6P [1]: < 1e-05 s⁻¹

Variant: AUAAAAGCGCCAGAACUACAGAAAUGUAGUUAACGAGGAGGAGGUUUAUCGAAUUUUCGGCGUAUGCCUCCAAA [G32A G63U]
- self-cleavage kobs at 40 uM GlcN6P [1]: < 1e-05 s⁻¹
- self-cleavage kobs at 160 uM GlcN6P [5]: < 1e-05 s⁻¹
- self-cleavage kobs at 2500 uM GlcN6P [4]: < 1e-05 s⁻¹
- self-cleavage kobs at 10000 uM GlcN6P [3]: < 1e-05 s⁻¹

Variant: AUAAAAGCGCCAGAACUACAGAAAUGUAGUUGACGAGGAGGAGGUUUAUGGAAUUUUCGGUGGGUGCCUCCAAA [C50G C61U A64G]
- self-cleavage kobs at 40 uM GlcN6P [1]: 0.000244 ± 8.5e-05 s⁻¹
- self-cleavage kobs at 160 uM GlcN6P [5]: 8.89e-05 ± 3.2e-05 s⁻¹
- self-cleavage kobs at 640 uM GlcN6P [2]: 0.000192 ± 8.3e-05 s⁻¹
- self-cleavage kobs at 10000 uM GlcN6P [3]: 4.62e-05 ± 1.7e-05 s⁻¹

Variant: AUAAAAGCGGCAGAACUACAGAAAUGUAGUUGACGAGGAGGAGGUUGAUCGAAUUUUCGGCGGAUGCCUUGAAA [C10G U47G C70U C71G]
- self-cleavage kobs at 40 uM GlcN6P [1]: < 1e-05 s⁻¹
- self-cleavage kobs at 640 uM GlcN6P [2]: 0.00148 ± 0.00064 s⁻¹

Variant: AUAAAAGCGCCAGAAGUACAGAAAUGUAGUUGACGAGGAGGAGGUUUAUCAAAUUUUCGGCGGAUGCCUCCAAA [C16G G51A]
- self-cleavage kobs at 40 uM GlcN6P [1]: < 1e-05 s⁻¹
- self-cleavage kobs at 160 uM GlcN6P [5]: < 1e-05 s⁻¹
- self-cleavage kobs at 10000 uM GlcN6P [3]: < 1e-05 s⁻¹

Variant: AUAAAAGCGCCAAAACUACAGAAAUGUAGUUGACGAGGAGGAGGUUUUUCGAAUUUUCGGCGGAUGCCUCCAAA [G13A A48U]
- self-cleavage kobs at 40 uM GlcN6P [1]: < 1e-05 s⁻¹
- self-cleavage kobs at 160 uM GlcN6P [5]: < 1e-05 s⁻¹
- self-cleavage kobs at 640 uM GlcN6P [2]: < 1e-05 s⁻¹

Variant: AUAAAAGUGCCAGAACUACAGAAAUGUAGUUGACGAGGAGGAGGUUUAUCGAAUUUUCGGCGGCUGCCUCCAAA [C8U A64C]
- self-cleavage kobs at 40 uM GlcN6P [1]: < 1e-05 s⁻¹
- self-cleavage kobs at 160 uM GlcN6P [5]: < 1e-05 s⁻¹
- self-cleavage kobs at 640 uM GlcN6P [2]: < 1e-05 s⁻¹
- self-cleavage kobs at 2500 uM GlcN6P [4]: < 1e-05 s⁻¹

Variant: AUAAAAGCGCCAGAACUACAGAAAUGUAGUUGACGAGGAGAAGGUUUAUCGGAUUUUCAGCGGAUGCCUCCAAA [G41A A52G G59A]
- self-cleavage kobs at 40 uM GlcN6P [1]: < 1e-05 s⁻¹
- self-cleavage kobs at 160 uM GlcN6P [5]: < 1e-05 s⁻¹
- self-cleavage kobs at 640 uM GlcN6P [2]: < 1e-05 s⁻¹

Variant: AUAAAACCGCCAGAACUACAGAAAUGUAGUUGACGAGGAGGAGGUUUUUCGAAUUUUCGGCGGAUGCCUGCAAA [G7C A48U C70G]
- self-cleavage kobs at 40 uM GlcN6P [1]: < 1e-05 s⁻¹
- self-cleavage kobs at 10000 uM GlcN6P [3]: < 1e-05 s⁻¹

Variant: AUAAAGGCGACAAAACUACAGAAAUGUAGUUGACGAGGAGGAGGUUUAUCGAAUUUUCGGCAGAAGCCUCCAAA [A6G C10A G13A G62A U65A]
- self-cleavage kobs at 40 uM GlcN6P [1]: < 1e-05 s⁻¹
- self-cleavage kobs at 10000 uM GlcN6P [3]: < 1e-05 s⁻¹

Variant: AUAAAAGCGCCAGAGCUACAGAAAUGUAGUUGACGAGGAGGAUGUUUCUCGAAUUUUCGGCGGAUGCCUCCAAA [A15G G43U A48C]
- self-cleavage kobs at 40 uM GlcN6P [1]: < 1e-05 s⁻¹
- self-cleavage kobs at 2500 uM GlcN6P [4]: < 1e-05 s⁻¹

Variant: AUAAAAGCGCCAGAACUACAGAAAUGUAGUUGACGAGGAGGAUUUUUAUCGAAUUUUCGGCGGAUGCCUCCAAA [G43U G44U]
- self-cleavage kobs at 40 uM GlcN6P [1]: < 1e-05 s⁻¹
- self-cleavage kobs at 160 uM GlcN6P [5]: < 1e-05 s⁻¹
- self-cleavage kobs at 640 uM GlcN6P [2]: < 1e-05 s⁻¹
- self-cleavage kobs at 2500 uM GlcN6P [4]: < 1e-05 s⁻¹
- self-cleavage kobs at 10000 uM GlcN6P [3]: < 1e-05 s⁻¹

Variant: AUAAAAUCGCCAGAACUACAGAAAUGUACUUGACGAGGAGGAGGUUUAUCGAAUUUUCGGCGGAUGCCUCCAAA [G7U G29C]
- self-cleavage kobs at 40 uM GlcN6P [1]: < 1e-05 s⁻¹
- self-cleavage kobs at 160 uM GlcN6P [5]: < 1e-05 s⁻¹
- self-cleavage kobs at 640 uM GlcN6P [2]: < 1e-05 s⁻¹
- self-cleavage kobs at 2500 uM GlcN6P [4]: < 1e-05 s⁻¹
- self-cleavage kobs at 10000 uM GlcN6P [3]: < 1e-05 s⁻¹
